Measurements reported in the RNAGym collection of RNA variant scans (doi:10.1093/molbev/msab373).

B1: Azoarcus group I ribozyme (parent)
chain: GUGCCUUGCGCCGGGAAACCACGCAAGGGAUGGUGUCAAAUUCGGCGAAACCUAAGCGCCCGCCCGGGCGUAUGGCAACGCCGAGCCAAGCUUCGGCGCCUGCGCCGAUGAAGGUGUAGAGACUAGACGGCACCCACCUAAGGCAAACGCUAUGGUGAAGGCAUAGUCCAGGGAGUGGCGAAAGUCACACAAACCGG

Variants of: B1
Test: reverse-splicing fitness (ratio to wild type); higher = more active; in vitro selection; Mg2+ level not given
Summary of the method: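 An in vitro group I ribozyme library with randomized positions was T7-transcribed and gel-purified. In triplicate, 10 pmol RNA in EPPS pH 7.5 was reacted with 50 pmoles of a 30-nt RNA substrate for 1 h at 37 °C across several added MgCl2 levels (1–48 mM), then stopped with EDTA. Products were reverse transcribed from a substrate-complementary primer, PCR-amplified and sequenced (HiSeq 4000). Fitness is a variant's read proportion after selection over that before, normalised to wild type.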
GUGCCUUGCGCCGGGAAACCACGCAAGGGAUGGUGUCAAAUUCGGCGAAACCUAAGCGCCCGCCCGGGCGUAUGGCAACGCGGAGCCAAGCUUCGGCGCCUGCGCCGAUGGAGGUGUAGGGACUAGACGGCACCCACCUAAGGCAAACGCUAUGGUGAAGGCAUAGUCCAGGGAGUGGCGAAAGUCACACAAACCGG showed a reverse-splicing fitness of 0.0208. In the case of GUGCCUUGCGCCGGGAAACCACGCAAGGGAUGGUGUCAAAUUCGGCGAAACCUAAGCGCCCGCCCGGGCGUAUGGCAACGCGGAGCCAAGCUUCGGCGCCUGCGCCGAUGGAGGUGUAGCGACUAGACGGCACCCACCUAAGGCAAACGCUAUGGUGAAGGCAUAGUCUAGGGAGGGGCGAAAGUCACACAAACCGG, the reverse-splicing fitness is reported as 0.00596. GUGCCUUGCGCCGGGAAACCACGCAAGGGAUGGUGUCAAAUUCGGCGAAACCUAAGCGCCCGCCCGGGCGUAUGGCAACGCGGAGCCAAGCUUCGGCGCCUGCGCCGAUGGAGGUGUAGCGACUAGACGGCACCCACCUAAGGCAAACGCUAUGGUGAAGGCAUAGUCUAGGGAGAGGCGAAAGUCACACAAACCGG gave a reverse-splicing fitness of 0.0138. GUGCCUUGCGCCGGGAAACCACGCAAGGGAUGGUGUCAAAUUCGGCGAAACCUAAGCGCCCGCCCGGGCGUAUGGCAACGCGGAGCCAAGCUUCGGCGCCUGCGCCGAUGGAGGUGUAGCGACUAGACGGCACCCACCUAAGGCAAACGCUAUGGUGAAGGCAUAGUCUAGGGAGCGGCGAAAGUCACACAAACCGG gave a reverse-splicing fitness of 0.0134. In the case of GUGCCUUGCGCCGGGAAACCACGCAAGGGAUGGUGUCAAAUUCGGCGAAACCUAAGCGCCCGCCCGGGCGUAUGGCAACGCGGAGCCAAGCUUCGGCGCCUGCGCCGAUGGAGGUGUAGGGACUAGACGGCACCCACCUAAGGCCAACGAUAUGGUGAAGGCAUAGUCCAGGGAGUGGCGAAAGUCACACAAACCGG, the reverse-splicing fitness is reported as 0.00699. GUGCCUUGCGCCGGGAAACCACGCAAGGGAUGGUGUCAAAUUCGGCGAAACCUAAGCGCCCGCCCGGGCGUAUGGCAACGCGGAGCCAAGCUUCGGCGCCUGCGCCGAUGGAGGUGUAGCGACUAGACGGCACCCACCUAAGGCAAACGCUAUGGUGAAGGCAUAGUCCAGGGAGCGGCGAAAGUCACACAAACCGG gave a reverse-splicing fitness of 0.045. In the case of GUGCCUUGCGCCGGGAAACCACGCAAGGGAUGGUGUCAAAUUCGGCGAAACCUAAGCGCCCGCCCGGGCGUAUGGCAACGCGGAGCCAAGCUUCGGCGCCUGCGCCGAUGGAGGUGUAGCGACUAGACGGCACCCACCUAAGGCAAACGCUAUGGUGAAGGCAUAGUCCAGGGAGGGGCGAAAGUCACACAAACCGG, the reverse-splicing fitness is reported as 0.011. Variant GUGCCUUGCGCCGGGAAACCACGCAAGGGAUGGUGUCAAAUUCGGCGAAACCUAAGCGCCCGCCCGGGCGUAUGGCAACGCGGAGCCAAGCUUCGGCGCCUGCGCCGAUGGAGGUGUAGCGACUAGACGGCACCCACCUAAGGCAAACGCUAUGGUGAAGGCAUAGUCCAGGGAGAGGCGAAAGUCACACAAACCGG has a reverse-splicing fitness of 0.0255. With GUGCCUUGCGCCGGGAAACCACGCAAGGGAUGGUGUCAAAUUCGGCGAAACCUAAGCGCCCGCCCGGGCGUAUGGCAACGCGGAGCCAAGCUUCGGCGCCUGCGCCGAUGGAGGUGUAGCGACUAGACGGCACCCACCUAAGGCAAACGCUAUGGUGAAGGCAUAGUCUAGGGAGUGGCGAAAGUCACACAAACCGG the reverse-splicing fitness was 0.0179. GUGCCUUGCGCCGGGAAACCACGCAAGGGAUGGUGUCAAAUUCGGCGAAACCUAAGCGCCCGCCCGGGCGUAUGGCAACGCGGAGCCAAGCUUCGGCGCCUGCGCCGAUGGAGGUGUAGGGACUAGACGGCACCCACCUAAGGCCAACGAUAUGGUGAAGGCAUAGUCAAGGGAGAGGCGAAAGUCACACAAACCGG showed a reverse-splicing fitness of 0.0139. With GUGCCUUGCGCCGGGAAACCACGCAAGGGAUGGUGUCAAAUUCGGCGAAACCUAAGCGCCCGCCCGGGCGUAUGGCAACGCGGAGCCAAGCUUCGGCGCCUGCGCCGAUGGAGGUGUAGGGACUAGACGGCACCCACCUAAGGCCAACGAUAUGGUGAAGGCAUAGUCAAGGGAGUGGCGAAAGUCACACAAACCGG the reverse-splicing fitness was 0.00854. Work on GUGCCUUGCGCCGGGAAACCACGCAAGGGAUGGUGUCAAAUUCGGCGAAACCUAAGCGCCCGCCCGGGCGUAUGGCAACGCGGAGCCAAGCUUCGGCGCCUGCGCCGAUGGAGGUGUAGCGACUAGACGGCACCCACCUAAGGCAAACGCUAUGGUGAAGGCAUAGUCGAGGGAGAGGCGAAAGUCACACAAACCGG yielded a reverse-splicing fitness of 0.0164. With GUGCCUUGCGCCGGGAAACCACGCAAGGGAUGGUGUCAAAUUCGGCGAAACCUAAGCGCCCGCCCGGGCGUAUGGCAACGCGGAGCCAAGCUUCGGCGCCUGCGCCGAUGGAGGUGUAGCGACUAGACGGCACCCACCUAAGGCAAACGCUAUGGUGAAGGCAUAGUCGAGGGAGCGGCGAAAGUCACACAAACCGG the reverse-splicing fitness was 0.0193. Work on GUGCCUUGCGCCGGGAAACCACGCAAGGGAUGGUGUCAAAUUCGGCGAAACCUAAGCGCCCGCCCGGGCGUAUGGCAACGCGGAGCCAAGCUUCGGCGCCUGCGCCGAUGGAGGUGUAGCGACUAGACGGCACCCACCUAAGGCAAACGCUAUGGUGAAGGCAUAGUCGAGGGAGGGGCGAAAGUCACACAAACCGG yielded a reverse-splicing fitness of 0.00531. GUGCCUUGCGCCGGGAAACCACGCAAGGGAUGGUGUCAAAUUCGGCGAAACCUAAGCGCCCGCCCGGGCGUAUGGCAACGCGGAGCCAAGCUUCGGCGCCUGCGCCGAUGGAGGUGUAGGGACUAGACGGCACCCACCUAAGGCCAACGCUAUGGUGAAGGCAUAGUCCAGGGAGUGGCGAAAGUCACACAAACCGG gave a reverse-splicing fitness of 0.0157.
